Reference: patent US20190300617A1 (Amgen, published 2019)
Where two headings read alike, the source gives them in different places.

B1: Erenumab HIC-HPLC Pre-peak Fraction F1 (antibody, human IgG2, lambda, V domains shown)
VH: QVQLVESGGGVVQPGRSLRLSCAASGFTFSSFGMHWVRQAPGKGLEWVAVISFDGSIKYSVDSVKGRFTISRDNSKNTLFLQMNSLRAEDTAVYYCARDRLNYYDSSGYYHYKYYGMAVWGQGTTVTVSS
VL: QSVLTQPPSVSAAPGQKVTISCSGSSSNIGNNYVSWYQQLPGTAPKLLIYDNNKRPSGIPDRFSGSKSGTSTTLGITGLQTGDEADYYCGTWDSRLSAVVFGGGTKLTVLG
modifications: Asp105 isomerization 0.6%; Asp105 succinimide 0.2%; Asn102 deamidation ND; Leu195/Ser196 cleavage 10.9%; further cleavage sites Leu315/Thr316, Ser197/Val198, Leu192/Tyr193, Gly108/Tyr109, Asp105/Ser106
B2: Erenumab CEX-HPLC Acidic Fraction F2 (antibody, human IgG2, lambda, V domains shown)
VH: B1 VH
VL: B1 VL
modifications: disulfide isoforms by RP-HPLC: 21.4% IgG2-B, 40.4% IgG2-A/B, 35.8% IgG2-A
B3: Erenumab CEX-HPLC Acidic Fraction F3 (antibody, human IgG2, lambda, V domains shown)
VH: B1 VH
VL: B1 VL
modifications: disulfide isoforms by RP-HPLC: 11.2% IgG2-B, 55.1% IgG2-A/B, 32.4% IgG2-A
B4: Erenumab CEX-HPLC Acidic Fraction F4 (antibody, human IgG2, lambda, V domains shown)
VH: B1 VH
VL: B1 VL
modifications: disulfide isoforms by RP-HPLC: 7.0% IgG2-B, 52.5% IgG2-A/B, 39.4% IgG2-A
B5: Erenumab CEX-HPLC Main Fraction F5 (antibody, human IgG2, lambda, V domains shown)
VH: B1 VH
VL: B1 VL
modifications: disulfide isoforms by RP-HPLC: 2.9% IgG2-B, 33.9% IgG2-A/B, 62.4% IgG2-A
B6: Erenumab CEX-HPLC Main Fraction F6 (antibody, human IgG2, lambda, V domains shown)
VH: B1 VH
VL: B1 VL
modifications: disulfide isoforms by RP-HPLC: 3.9% IgG2-B, 27.8% IgG2-A/B, 65.5% IgG2-A
B7: Erenumab CEX-HPLC Basic Fraction F7 (antibody, human IgG2, lambda, V domains shown)
VH: B1 VH
VL: B1 VL
modifications: disulfide isoforms by RP-HPLC: 3.9% IgG2-B, 28.6% IgG2-A/B, 65.4% IgG2-A
B8: Erenumab CEX-HPLC Basic Fraction F8 (antibody, human IgG2, lambda, V domains shown)
VH: B1 VH
VL: B1 VL
modifications: disulfide isoforms by RP-HPLC: 2.0% IgG2-B, 23.3% IgG2-A/B, 73.3% IgG2-A
B9: Erenumab HIC-HPLC Pre-peak Fraction F2 (antibody, human IgG2, lambda, V domains shown)
VH: B1 VH
VL: B1 VL
modifications: Asp105 isomerization (isoAsp) 26.4%; Asp105 succinimide 1.4%; Asn102 deamidation 0.1%; Leu195/Ser196 cleavage 1.0%
B10: Erenumab CEX-HPLC Basic Fraction F9 (antibody, human IgG2, lambda, V domains shown)
VH: B1 VH
VL: B1 VL
modifications: disulfide isoforms by RP-HPLC: 11.0% IgG2-B, 31.3% IgG2-A/B, 55.9% IgG2-A
B11: Erenumab HIC-HPLC Pre-peak Fraction F3 (antibody, human IgG2, lambda, V domains shown)
VH: B1 VH
VL: B1 VL
modifications: Asp105 isomerization (isoAsp) 19.6%; Asp105 succinimide 12.6%; Asn102 deamidation 1.2%; Leu195/Ser196 cleavage 0.5%
B12: Erenumab SE-UHPLC Fraction HMW 1 (antibody, human IgG2, lambda, V domains shown)
VH: B1 VH
VL: B1 VL
B13: Erenumab SE-UHPLC Fraction HMW 2 (antibody, human IgG2, lambda, V domains shown)
VH: B1 VH
VL: B1 VL
B14: Erenumab SE-UHPLC Fraction Main (antibody, human IgG2, lambda, V domains shown)
VH: B1 VH
VL: B1 VL
B15: Erenumab HIC-HPLC Pre-peak Fraction F4 (antibody, human IgG2, lambda, V domains shown)
VH: B1 VH
VL: B1 VL
modifications: Asp105 isomerization (isoAsp) 5.5%; Asp105 succinimide 4.3%; Asn102 deamidation 11.6%; Leu195/Ser196 cleavage 0.4%
B16: Erenumab HIC-HPLC Main Fraction F5 (antibody, human IgG2, lambda, V domains shown)
VH: B1 VH
VL: B1 VL
modifications: Asp105 isomerization ND; Asp105 succinimide 0.1%; Asn102 deamidation ND; Leu195/Ser196 cleavage 0.3%
B17: Erenumab HIC-HPLC Post-peak Fraction F6 (antibody, human IgG2, lambda, V domains shown)
VH: B1 VH
VL: B1 VL
modifications: Asp105 isomerization (isoAsp) 13.2%; Asp105 succinimide 0.1%; Asn102 deamidation ND; Leu195/Ser196 cleavage 0.6%
B18: Erenumab HIC-HPLC Post-peak Fraction F7 (antibody, human IgG2, lambda, V domains shown)
VH: B1 VH
VL: B1 VL
modifications: Asp105 isomerization (isoAsp) 2.4%; Asp105 succinimide 0.1%; Asn102 deamidation ND; Leu195/Ser196 cleavage 1.1%

What was measured:
Assay in all cases: cell-based or functional assay
human CGRP receptor [1] = target: T1, human CGRP receptor (human, UniProt Q16602 23-461; O60894 27-148)
T1 sequence (Q16602 23-461, chain 1 of 2): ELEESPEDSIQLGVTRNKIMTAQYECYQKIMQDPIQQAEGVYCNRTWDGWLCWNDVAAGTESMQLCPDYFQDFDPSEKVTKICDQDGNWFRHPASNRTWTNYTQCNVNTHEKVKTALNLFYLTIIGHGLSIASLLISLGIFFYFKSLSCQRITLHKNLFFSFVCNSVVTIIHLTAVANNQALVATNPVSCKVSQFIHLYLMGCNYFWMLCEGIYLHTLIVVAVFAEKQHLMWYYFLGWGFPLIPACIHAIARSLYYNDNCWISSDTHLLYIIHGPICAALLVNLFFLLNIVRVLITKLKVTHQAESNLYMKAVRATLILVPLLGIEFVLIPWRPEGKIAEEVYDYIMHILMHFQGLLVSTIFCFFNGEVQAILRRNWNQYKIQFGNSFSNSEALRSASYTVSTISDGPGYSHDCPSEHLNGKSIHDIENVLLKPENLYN
T1 sequence (O60894 27-148, chain 2 of 2): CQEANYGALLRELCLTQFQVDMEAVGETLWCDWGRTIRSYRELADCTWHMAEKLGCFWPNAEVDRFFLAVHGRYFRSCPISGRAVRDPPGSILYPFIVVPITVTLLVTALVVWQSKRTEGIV

human CGRP receptor [2] = target: T1, human CGRP receptor; remark: listed apart in the source
human CGRP receptor [3] = target: T1, human CGRP receptor; remark: listed apart in the source

| Binder | % Relative Potency by Cell-Based Bioassay (human CGRP receptor [1]) | % Relative Potency by Cell-Based Bioassay (human CGRP receptor [2]) | also measured |
| --- | --- | --- | --- |
| B1 | 33% |  |  |
| B2 |  | 58% |  |
| B3 |  | 71% |  |
| B4 |  | 82% |  |
| B5 |  | 101% |  |
| B6 |  | 92% |  |
| B7 |  | 96% |  |
| B8 |  | 102% |  |
| B9 | 24% |  |  |
| B10 |  | 98% |  |
| B11 | 35% |  |  |
| B12 |  |  | % Relative Potency by Cell-Based Bioassay (human CGRP receptor [3]): 42% |
| B13 |  |  | % Relative Potency by Cell-Based Bioassay (human CGRP receptor [3]): 62% |
| B14 |  |  | % Relative Potency by Cell-Based Bioassay (human CGRP receptor [3]): 97% |
| B15 | 34% |  |  |
| B16 | 107% |  |  |
| B17 | 77% |  |  |
| B18 | 68% |  |  |
